Test results: patent US7972827B2, “Photoswitchable method for the ordered attachment of proteins to surfaces” (Lawrence Livermore National Security, LLC, priority 2003, dated 2011)

Target: T1, MBP-N-intein fusion protein (Synechocystis sp., UniProt P74750)
T1 construct: made in house; host or cells: E. coli BL21(DE3)pLysS+
Assay: in solution trans-splicing activity of photocaged C-intein polypeptides with MBP-N-intein fusion protein
Format: biochemical, Synechocystis sp. PCC6803
Conditions: for trans-splicing activity relative to the non-photocaged C-intein polypeptide: % of the trans-splicing activity of the non-photocaged C-intein polypeptide, SDS-PAGE analysis
Method: In-vitro protein trans-splicing was characterized as follows. Each purified C-intein polypeptide was combined with MBP-N-intein fusion protein in splicing buffer (0.5 mM EDTA, 1 mM TCEP, 50 mM sodium phosphate, 150-500 mM NaCl at pH 7). The concentration of the two proteins was typically in the range 0.1-200 μM. The mixture was allowed to react at 4° C. for 12-16 h. The reaction was then quenched by dilution into SDS-PAGE loading buffer containing 20% v/v 2-mercaptoethanol before the SDS-PAGE analysis. The spliced product was purified using HPLC and characterized by ES-MS as the trans-spliced product. The expected mass (average isotopic composition)=43988.0 Da; measured mass=43986±10 Da.
The in solution trans-splicing activity of each photocaged C-intein polypeptide was assayed using the MBP-N-intein fusion protein expressed as described above.

Row | Substance | trans-splicing activity relative to the non-photocaged C-intein polypeptide | ability to promote trans-splicing (in words) (with MBP-N-intein fusion protein, data not shown)
1 | C-intein polypeptide with caged Gly6: DnaE C-intein polypeptide SEQ ID NO:6 with PEGylated thiol linker, photocaged (nitroveratryl) at Gly6 | about 30% | 
2 | C-intein polypeptide with caged Gly11: DnaE C-intein polypeptide SEQ ID NO:6 with PEGylated thiol linker, photocaged (nitroveratryl) at Gly11 | around 60% | 
3 | C-intein polypeptide with caged Gly19: DnaE C-intein polypeptide SEQ ID NO:6 with PEGylated thiol linker, photocaged (nitroveratryl) at Gly19 | about 30% | 
4 | C-intein polypeptide with two caged residues, Gly19 and Gly31: DnaE C-intein polypeptide SEQ ID NO:6 with PEGylated thiol linker, photocaged (nitroveratryl) at both Gly19 and Gly31 |  | completely prevent trans-splicing activity
